Columns and labels:
[1] = biological target: Mouse tail tendon type I collagen homotrimer α1(I)3 (mouse) (UniProt P11087); assay: equilibrium microdialysis
[2] = biological target: Mouse tail tendon type I collagen heterotrimer α1(I)2α2(I) (mouse) (UniProt P11087); assay: equilibrium microdialysis
Chain of Mouse tail tendon type I collagen heterotrimer α1(I)2α2(I) (mouse) (P11087 152-1207, chain 1 of 2): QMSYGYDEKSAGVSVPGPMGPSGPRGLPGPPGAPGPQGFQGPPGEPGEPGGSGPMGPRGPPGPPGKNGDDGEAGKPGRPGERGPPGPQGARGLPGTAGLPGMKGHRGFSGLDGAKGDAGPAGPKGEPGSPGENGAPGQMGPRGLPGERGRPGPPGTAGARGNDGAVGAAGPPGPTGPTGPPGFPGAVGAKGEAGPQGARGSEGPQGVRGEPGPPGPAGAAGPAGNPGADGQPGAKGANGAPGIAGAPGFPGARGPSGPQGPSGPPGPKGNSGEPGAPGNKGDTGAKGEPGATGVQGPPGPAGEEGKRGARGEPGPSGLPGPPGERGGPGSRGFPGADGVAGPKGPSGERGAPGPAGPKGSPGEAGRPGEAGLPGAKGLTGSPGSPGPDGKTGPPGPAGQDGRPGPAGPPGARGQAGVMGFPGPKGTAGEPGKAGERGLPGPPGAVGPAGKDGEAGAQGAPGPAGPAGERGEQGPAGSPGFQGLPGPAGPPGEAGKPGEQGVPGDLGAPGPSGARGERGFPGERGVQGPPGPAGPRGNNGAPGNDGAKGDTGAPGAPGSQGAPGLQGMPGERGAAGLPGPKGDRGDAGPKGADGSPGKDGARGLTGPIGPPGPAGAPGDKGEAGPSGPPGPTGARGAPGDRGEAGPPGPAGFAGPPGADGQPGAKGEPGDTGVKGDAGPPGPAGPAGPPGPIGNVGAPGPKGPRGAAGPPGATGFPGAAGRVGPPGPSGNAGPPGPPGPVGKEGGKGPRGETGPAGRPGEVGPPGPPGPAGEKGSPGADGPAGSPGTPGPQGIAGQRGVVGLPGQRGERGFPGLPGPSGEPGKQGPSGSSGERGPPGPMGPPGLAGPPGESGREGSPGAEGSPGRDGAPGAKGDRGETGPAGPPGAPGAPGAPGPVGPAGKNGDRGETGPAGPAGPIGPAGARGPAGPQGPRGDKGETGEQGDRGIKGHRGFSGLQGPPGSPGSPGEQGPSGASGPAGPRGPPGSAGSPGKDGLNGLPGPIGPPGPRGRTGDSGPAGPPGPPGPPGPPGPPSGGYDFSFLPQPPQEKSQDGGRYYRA
Chain of Mouse tail tendon type I collagen heterotrimer α1(I)2α2(I) (mouse) (Q01149 86-1125, chain 2 of 2, further chain): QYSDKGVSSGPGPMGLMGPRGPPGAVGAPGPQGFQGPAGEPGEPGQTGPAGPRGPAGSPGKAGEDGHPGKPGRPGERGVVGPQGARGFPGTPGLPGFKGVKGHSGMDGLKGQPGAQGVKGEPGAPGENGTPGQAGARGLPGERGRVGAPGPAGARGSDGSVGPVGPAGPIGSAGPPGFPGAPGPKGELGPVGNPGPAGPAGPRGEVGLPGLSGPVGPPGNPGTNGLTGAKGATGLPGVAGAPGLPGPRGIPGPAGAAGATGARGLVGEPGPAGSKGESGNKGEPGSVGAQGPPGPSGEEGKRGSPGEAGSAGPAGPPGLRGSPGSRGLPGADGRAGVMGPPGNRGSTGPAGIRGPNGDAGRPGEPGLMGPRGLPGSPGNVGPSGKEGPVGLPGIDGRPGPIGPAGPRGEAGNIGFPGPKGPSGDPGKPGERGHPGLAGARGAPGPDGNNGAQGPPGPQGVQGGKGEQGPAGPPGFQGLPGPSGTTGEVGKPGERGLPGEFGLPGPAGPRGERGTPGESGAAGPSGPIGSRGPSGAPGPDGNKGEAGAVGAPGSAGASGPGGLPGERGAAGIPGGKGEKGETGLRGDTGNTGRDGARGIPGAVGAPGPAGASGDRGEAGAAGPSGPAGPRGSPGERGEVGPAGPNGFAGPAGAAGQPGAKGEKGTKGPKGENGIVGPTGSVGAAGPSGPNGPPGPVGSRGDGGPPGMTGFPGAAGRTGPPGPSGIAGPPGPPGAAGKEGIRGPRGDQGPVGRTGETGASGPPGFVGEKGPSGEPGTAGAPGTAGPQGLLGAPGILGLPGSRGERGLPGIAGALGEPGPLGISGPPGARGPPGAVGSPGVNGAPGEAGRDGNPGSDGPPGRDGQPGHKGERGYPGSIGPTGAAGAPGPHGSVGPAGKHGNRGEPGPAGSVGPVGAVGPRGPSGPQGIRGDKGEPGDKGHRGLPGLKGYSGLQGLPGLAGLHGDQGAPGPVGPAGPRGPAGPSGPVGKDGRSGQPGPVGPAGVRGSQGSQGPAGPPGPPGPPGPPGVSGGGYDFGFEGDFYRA

Chain of Mouse tail tendon type I collagen homotrimer α1(I)3 (mouse) (P11087 152-1207): as the sequence (P11087 152-1207, chain 1 of 2) above

KD, high-affinity site [1]: 1300 nM
KD, low-affinity sites [1]: > 50000 nM
N, high-affinity site (MMP-1(E200A) per collagen triple helix) [1]: 1
KD, high-affinity site [2]: 1300 nM
KD, low-affinity sites [2]: > 50000 nM
N, high-affinity site (MMP-1(E200A) per collagen triple helix) [2]: 1
Substance: MMP-1(E200A), activated recombinant human fibroblast collagenase with Glu-200 substituted with Ala (enzyme)
